Reference: patent US20120316071A1

Tests used:
[1] = target: rHuman Notch-1/Fc Chimera, CF (R&D Systems Cat#3647-TK) (human) (UniProt P46531); test: Multispot ECL (MSD), antigen spotted on plate, Fab […]; blank spot 162
[2] = target: rHuman HGF R/c-MET/Fc Chimera, CF (R&D Systems Cat#358-MT/CF) (human) (UniProt P08581); test: as above
[3] = target: rHuman IGF-1 sR, (IGF-1 sR), CF (R&D Systems Cat#391-GR) (human) (UniProt P08069); test: as above
[4] = target: rHuman EGF R/Fc Chimera, CF (R&D Systems Cat#344-ER) (human) (UniProt P00533); test: as above
[5] = target: rHuman ErbB2/Fc Chimera, CF (R&D Systems Cat#1129-ER) (human) (UniProt P04626); test: as above
[6] = target: rHuman Erythropoietin R/Fc Chimera, CF (R&D Systems Cat#963-ER) (human) (UniProt P19235); test: as above
Sequence of rHuman Erythropoietin R/Fc Chimera, CF (R&D Systems Cat#963-ER) (human) (P19235 25-250, change not shown): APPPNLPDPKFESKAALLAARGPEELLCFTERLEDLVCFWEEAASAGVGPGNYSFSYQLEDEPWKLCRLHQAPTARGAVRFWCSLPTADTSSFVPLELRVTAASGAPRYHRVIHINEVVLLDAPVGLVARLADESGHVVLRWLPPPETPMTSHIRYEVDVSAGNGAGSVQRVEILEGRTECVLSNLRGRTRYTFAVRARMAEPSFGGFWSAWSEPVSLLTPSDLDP

[7] = target: rHuman P-Cadherin/Fc Chimera, CF (R&D Systems Cat#861-PC) (human) (UniProt P22223); test: as above
[8] = target: rHuman CD44/Fc Chimera, CF (R&D Systems Cat#3660-CD) (human) (UniProt P16070); test: as above
[9] = target: rHuman Notch-1/Fc Chimera, CF (R&D Systems Cat#3647-TK) (human) (UniProt P46531); test: Multispot ECL (MSD), antigen spotted on plate, Fab 340 nM; blank spot 554
[10] = target: rHuman HGF R/c-MET/Fc Chimera, CF (R&D Systems Cat#358-MT/CF) (human) (UniProt P08581); test: as above
[11] = target: rHuman IGF-1 sR, (IGF-1 sR), CF (R&D Systems Cat#391-GR) (human) (UniProt P08069); test: as above
[12] = target: rHuman EGF R/Fc Chimera, CF (R&D Systems Cat#344-ER) (human) (UniProt P00533); test: as above
[13] = target: rHuman ErbB2/Fc Chimera, CF (R&D Systems Cat#1129-ER) (human) (UniProt P04626); test: as above
[14] = target: rHuman Erythropoietin R/Fc Chimera, CF (R&D Systems Cat#963-ER) (human) (UniProt P19235); test: as above
[15] = target: rHuman P-Cadherin/Fc Chimera, CF (R&D Systems Cat#861-PC) (human) (UniProt P22223); test: as above
[16] = target: rHuman CD44/Fc Chimera, CF (R&D Systems Cat#3660-CD) (human) (UniProt P16070); test: as above
[17] = target: rHuman Notch-1/Fc Chimera, CF (R&D Systems Cat#3647-TK) (human) (UniProt P46531); test: Multispot ECL (MSD), antigen spotted on plate, Fab 85.0 nM; blank spot 292
[18] = target: rHuman HGF R/c-MET/Fc Chimera, CF (R&D Systems Cat#358-MT/CF) (human) (UniProt P08581); test: as above
[19] = target: rHuman IGF-1 sR, (IGF-1 sR), CF (R&D Systems Cat#391-GR) (human) (UniProt P08069); test: as above
[20] = target: rHuman EGF R/Fc Chimera, CF (R&D Systems Cat#344-ER) (human) (UniProt P00533); test: as above
[21] = target: rHuman ErbB2/Fc Chimera, CF (R&D Systems Cat#1129-ER) (human) (UniProt P04626); test: as above
[22] = target: rHuman Erythropoietin R/Fc Chimera, CF (R&D Systems Cat#963-ER) (human) (UniProt P19235); test: as above
[23] = target: rHuman P-Cadherin/Fc Chimera, CF (R&D Systems Cat#861-PC) (human) (UniProt P22223); test: as above
[24] = target: rHuman CD44/Fc Chimera, CF (R&D Systems Cat#3660-CD) (human) (UniProt P16070); test: as above
[25] = target: rHuman Notch-1/Fc Chimera, CF (R&D Systems Cat#3647-TK) (human) (UniProt P46531); test: Multispot ECL (MSD), antigen spotted on plate, Fab 170 nM; blank spot 262
[26] = target: rHuman HGF R/c-MET/Fc Chimera, CF (R&D Systems Cat#358-MT/CF) (human) (UniProt P08581); test: as above
[27] = target: rHuman IGF-1 sR, (IGF-1 sR), CF (R&D Systems Cat#391-GR) (human) (UniProt P08069); test: as above
[28] = target: rHuman EGF R/Fc Chimera, CF (R&D Systems Cat#344-ER) (human) (UniProt P00533); test: as above
[29] = target: rHuman ErbB2/Fc Chimera, CF (R&D Systems Cat#1129-ER) (human) (UniProt P04626); test: as above
[30] = target: rHuman Erythropoietin R/Fc Chimera, CF (R&D Systems Cat#963-ER) (human) (UniProt P19235); test: as above
[31] = target: rHuman P-Cadherin/Fc Chimera, CF (R&D Systems Cat#861-PC) (human) (UniProt P22223); test: as above
[32] = target: rHuman CD44/Fc Chimera, CF (R&D Systems Cat#3660-CD) (human) (UniProt P16070); test: as above

Sequence of rHuman HGF R/c-MET/Fc Chimera, CF (R&D Systems Cat#358-MT/CF) (human) (P08581 25-932, change not shown): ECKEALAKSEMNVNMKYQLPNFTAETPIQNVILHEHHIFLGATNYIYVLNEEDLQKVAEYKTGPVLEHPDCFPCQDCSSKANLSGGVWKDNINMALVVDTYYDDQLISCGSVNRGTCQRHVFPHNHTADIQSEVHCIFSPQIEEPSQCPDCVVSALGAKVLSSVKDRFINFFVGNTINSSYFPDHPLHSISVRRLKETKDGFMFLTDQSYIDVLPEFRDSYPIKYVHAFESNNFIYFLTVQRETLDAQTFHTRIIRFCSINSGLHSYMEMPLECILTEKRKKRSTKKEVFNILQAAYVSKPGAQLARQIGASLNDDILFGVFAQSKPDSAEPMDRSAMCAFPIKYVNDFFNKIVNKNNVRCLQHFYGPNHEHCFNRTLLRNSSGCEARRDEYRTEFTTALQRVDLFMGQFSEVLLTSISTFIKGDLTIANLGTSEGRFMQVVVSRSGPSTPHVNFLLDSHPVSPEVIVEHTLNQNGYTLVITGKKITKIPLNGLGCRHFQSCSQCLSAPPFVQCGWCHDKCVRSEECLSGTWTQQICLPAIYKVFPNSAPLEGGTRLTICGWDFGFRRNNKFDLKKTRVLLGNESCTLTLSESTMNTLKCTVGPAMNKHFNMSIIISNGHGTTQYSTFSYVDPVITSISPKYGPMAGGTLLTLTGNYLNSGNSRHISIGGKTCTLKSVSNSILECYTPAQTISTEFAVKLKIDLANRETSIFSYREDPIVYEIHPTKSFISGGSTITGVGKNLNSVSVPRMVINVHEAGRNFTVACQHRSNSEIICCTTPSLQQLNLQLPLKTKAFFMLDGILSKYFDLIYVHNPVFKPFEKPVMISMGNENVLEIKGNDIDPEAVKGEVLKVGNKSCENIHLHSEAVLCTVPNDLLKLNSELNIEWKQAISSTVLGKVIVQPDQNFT

B1: Fab VH4-34_IGHD7-27*01_IGHJ4*01 & V4-6_IGLJ4*01 (Fab, V domains shown)
VH: QVQLQQWGAGLLKPSETLSLTCAVYGGSFSGYYWSWIRQPPGKGLEWIGEINHSGSTNYNPSLKSRVTISVDTSKNQFSLKLSSVTAADTAVYYCARANWGDYFDYWGQGTLVTVSS
VL: RPVLTQPPSLSASPGATARLPCTLSSDLSVGGKNMFWYQQKPGSSPRLFLYHYSDSDKQLGPGVPSRVSGSKETSSNTAFLLISGLQPEDEADYYCQVYESSANFVFGGGTQLIIL
- ECL signal [1]: 649
- ECL signal [2]: 607
- ECL signal [3]: 646
- ECL signal [4]: 528
- ECL signal [5]: 866
- ECL signal [6]: 494
- ECL signal [7]: 421
- ECL signal [8]: 522
- ECL signal [9]: 1210
- ECL signal [10]: 1240
- ECL signal [11]: 1040
- ECL signal [12]: 1210
- ECL signal [13]: 1230
- ECL signal [14]: 1260
- ECL signal [15]: 1160
- ECL signal [16]: 959
- ECL signal [17]: 780
- ECL signal [18]: 998
- ECL signal [19]: 891
- ECL signal [20]: 1000
- ECL signal [21]: 844
- ECL signal [22]: 817
- ECL signal [23]: 709
- ECL signal [24]: 693
- ECL signal [25]: 816
- ECL signal [26]: 757
- ECL signal [27]: 832
- ECL signal [28]: 826
- ECL signal [29]: 964
- ECL signal [30]: 790
- ECL signal [31]: 744
- ECL signal [32]: 660
